Results taken from the supplement of paper PMC10567573.

B1: DCAF4 (parent)
chain: PGIDRPGMLCSFRIPGAWSCAWSL
B2: NCF4 (parent)
chain: FVKILKDFPEEDDPTNWLRCYYYE

Variants of: B1
Assay: protein stability index of a GFP-peptide fusion (GPS, HEK-293T) (PSI 1-6); higher = more stable
Settings: c terminus: a fixed tail appended
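Note: lentivirally expressed fusions sorted by FACS into six bins by GFP to DsRed ratio, PSI derived from sequencing read proportions per bin multiplied by bin number.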

Row | Variant | protein stability index
1 | I14G | 1.54
2 | I14L | 2.47
3 | P6R | 3.89
4 | P6E | 1.44
5 | L24I | 2.42
6 | L24P | 2.03
7 | L24Y | 1.96
8 | L24T | 3.74
9 | W18E | 1.68
10 | W18M | 2.71
11 | L9K | 3.08
12 | L9E | 2.62
13 | L9I | 3.09
14 | L9V | 2.85
15 | L9T | 1.7
16 | C10H | 3.98
17 | C10K | 2.77
18 | S23T | 2.5
19 | S23C | 1.89
20 | S23L | 3.01

Row | Variant | protein stability index
21 | A17F | 2.16
22 | P1N | 3.47
23 | S11T | 1.56
24 | S11Q | 2.82
25 | S11M | 2.95
26 | R13T | 3.39
27 | P15M | 2.89
28 | P15F | 3.83
29 | G7N | 2.67
30 | C20E | 1.7
31 | C20P | 3.17
32 | M8N | 2.11
33 | M8I | 3
34 | D4F | 2.74
35 | D4Q | 2.42
36 | R5F | 3.57
37 | R5P | 2.75
38 | G16W | 1.49
39 | G16Q | 2.3

Variants of: B2
Assay: as above
Settings: c terminus: a fixed tail appended

Row | Variant | protein stability index
40 | Y22L | 2.24
41 | Y22M | 2.33
42 | Y22Q | 3.25
43 | Y22W | 2.28
44 | Y22A | 3.02
45 | Y22H | 1.82
46 | Y22F | 1.65
47 | D7C | 4.49
48 | D7H | 1.77
49 | D7L | 2.16
50 | D7V | 2.69
51 | D7E | 1
52 | V2Y | 2.08
53 | V2H | 1.57
54 | V2T | 2.4
55 | V2A | 1.88
56 | V2I | 1.46
57 | V2S | 1.62
58 | V2Q | 3.03
59 | V2P | 2.82
60 | D12P | 1.03
61 | D12Q | 2.75
62 | D12T | 1.37
63 | P14Y | 1.3
64 | P14M | 1.72
65 | P14C | 1.19

Row | Variant | protein stability index
66 | P14D | 2.76
67 | P14Q | 1.47
68 | P14E | 3.08
69 | W17F | 1.59
70 | W17V | 1.31
71 | W17I | 1.84
72 | W17N | 3.07
73 | W17E | 1.91
74 | W17M | 1.85
75 | W17K | 1.93
76 | W17R | 1.52
77 | W17S | 1.52
78 | E10Q | 2.48
79 | Y23F | 2.27
80 | Y23W | 1.78
81 | Y23D | 1.57
82 | Y23A | 1.75
83 | Y23R | 1.96
84 | L5F | 1.86
85 | L5P | 2.95
86 | L5H | 3.08
87 | L5W | 1.06
88 | L5E | 1.96
89 | L5D | 2.1
90 | Y21W | 1.89
91 | Y21R | 1.9

Row | Variant | protein stability index
92 | Y21L | 2.62
93 | Y21I | 2.44
94 | D13Y | 2.81
95 | D13C | 1.96
96 | D13P | 1.4
97 | D13W | 3.15
98 | P9R | 1.6
99 | P9T | 1.73
100 | P9Y | 1.38
101 | P9A | 2.67
102 | T15W | 1.41
103 | T15L | 2.27
104 | T15E | 2.85
105 | T15K | 1.93
106 | T15V | 1.9
107 | T15N | 2.03
108 | T15G | 1.66
109 | F8Y | 4.09
110 | F8E | 1.14
111 | F8S | 2.92
112 | F8L | 1.15
113 | F8C | 1.25
114 | F8I | 1.25
115 | F8G | 1.18
116 | F8M | 3.67
117 | C20G | 2.06

Row | Variant | protein stability index
118 | C20T | 2.38
119 | C20E | 2.12
120 | C20A | 1.58
121 | C20S | 1.96
122 | C20D | 1.79
123 | F1A | 1.99
124 | F1P | 2.05
125 | F1L | 2.17
126 | F1V | 2.21
127 | L18A | 2.1
128 | L18M | 1.72
129 | L18K | 1.55
130 | L18D | 1.94
131 | L18E | 2.13
132 | L18Q | 1.73
133 | R19E | 1.56
134 | R19G | 1.09
135 | R19H | 3.89
136 | R19P | 2.54
137 | R19S | 1.79
138 | R19D | 2.32
139 | R19V | 1.74
140 | R19A | 2.27
141 | K6Q | 1.97
142 | K6S | 3.11
143 | N16A | 1.61

Row | Variant | protein stability index
144 | N16M | 2.61
145 | N16Q | 2.05
146 | N16Y | 2.46
147 | N16E | 2.71
148 | N16R | 1.47
149 | N16W | 1.58
150 | N16C | 3.04
151 | E11H | 3.15
152 | E11L | 2.74
153 | E11M | 1.01
154 | E11W | 2.04
155 | E11A | 1.68
156 | E11R | 1.75
157 | E11F | 3.95
158 | E24G | 1.54
159 | E24H | 2.4
160 | E24N | 1.5
161 | E24D | 1.39
162 | E24M | 2.05
163 | I4F | 3.08
164 | I4W | 3.72
165 | I4N | 2.76
166 | K3N | 2.31
167 | K3H | 1.43
